Data published in article PMC9133036 (Nature Communications, 2022).

Biological target: T1, full-length wild-type human OX2R (pCDNA3, HEK293) (human) (UniProt O43614)
T1 sequence: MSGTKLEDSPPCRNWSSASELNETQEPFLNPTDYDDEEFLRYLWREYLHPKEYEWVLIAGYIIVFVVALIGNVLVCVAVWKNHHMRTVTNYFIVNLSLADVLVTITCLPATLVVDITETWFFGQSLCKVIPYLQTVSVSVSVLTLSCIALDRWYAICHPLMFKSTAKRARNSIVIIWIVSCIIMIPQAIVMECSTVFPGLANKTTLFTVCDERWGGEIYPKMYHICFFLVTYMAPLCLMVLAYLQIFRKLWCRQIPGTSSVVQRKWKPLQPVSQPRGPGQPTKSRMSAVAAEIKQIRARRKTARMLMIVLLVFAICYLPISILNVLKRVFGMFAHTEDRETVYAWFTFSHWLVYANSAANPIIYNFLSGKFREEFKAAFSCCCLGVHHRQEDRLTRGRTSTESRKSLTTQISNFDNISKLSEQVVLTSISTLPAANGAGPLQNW

orexin B, sequence (O43612 70-97): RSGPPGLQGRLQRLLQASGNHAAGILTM

Gq-mediated inositol phosphate (IP) accumulation in HEK293 cells transfected with OX2R and Gαq; EC50 of orexin B: 8.2 nM
Substance: orexin B (from UniProt O43612 70-97) (peptide)
